We go through 167 variants from the RNAGym collection of RNA variant scans (doi:10.7554/elife.80360).

The chains are these.
B1: Hairpin Ribozyme (parent)
chain: GUCCUCUUUCACGUGCGCGUGAAAGAGAGAAGUGAACCAGAGAAACACACGUUGUGGUAUAUUACCUGGUA

The variants in this series derive from B1. Briefly: self-cleavage, relative activity (ratio to wild type); higher = more cleavage; co-transcriptional.
Regarding A28G G51U, the self-cleavage was determined as 1.14.

For A22C U62G, the self-cleavage was 0.155.

With U2C U14C, the self-cleavage is 0.359.

Consider C12G A49U, for which the self-cleavage stood at 0.12.

For C38U G42C, the self-cleavage is 0.177.

For C4A A39C, the self-cleavage stood at 0.166.

Regarding A11C C16A, the self-cleavage was determined as 0.759.

In the case of A49U U60C, the self-cleavage was 0.331.

As to G1U G54U, the self-cleavage worked out at 0.141.

As for A41G A71C, the self-cleavage worked out at 1.34.

Turning to A41G A71G, the self-cleavage came out at 1.08.

In the case of A44G A47C, the self-cleavage worked out at 0.222.

U8G U60G: the self-cleavage is 0.51.

Consider G32C G69A, for which the self-cleavage amounted to 0.149.

In the case of C10A U60A, the self-cleavage is 0.64.

For U2A U62G, the self-cleavage stood at 0.088.

In the case of A47U G54A, the self-cleavage came to 0.159.

Consider A30C A36U, for which the self-cleavage is 0.122.

As to G25A C66G, the self-cleavage is 0.133.

With C3G U70G, the self-cleavage is 0.272.

A31U A59C: the self-cleavage worked out at 0.0285.

Regarding U20A A39G, the self-cleavage was 0.302.

Regarding C50G U70G, the self-cleavage was determined as 0.314.

As to C3U A43C, the self-cleavage was determined as 0.161.

Turning to C12A G40A, the self-cleavage came to 0.237.

Turning to G34C A59U, the self-cleavage stood at 0.202.

Turning to C4A A44C, the self-cleavage was determined as 0.0924.

C48G C66G: the self-cleavage is 0.105.

On to G40U A47C, for which the self-cleavage came to 0.118.

A36U C48U: the self-cleavage stood at 0.0683.

Regarding G42C C50A, the self-cleavage worked out at 0.212.

Turning to G19U G57U, the self-cleavage was found to be 0.207.

On to G25C U53A, for which the self-cleavage amounted to 0.497.

Regarding C3U C10A, the self-cleavage was 0.276.

As for C4A A24C, the self-cleavage amounted to 0.137.

In the case of U9G G25U, the self-cleavage is 0.194.

For G29U C50A, the self-cleavage turned out to be 0.113.

For the variant C6U G34A, the self-cleavage is 0.863.

Take A23U G40C: the self-cleavage was 0.1.

For the variant A23U G40U, the self-cleavage is 0.134.

In the case of C6A C12U, the self-cleavage came out at 0.512.

With A31C G56C, the self-cleavage came out at 0.115.

Regarding C4U C38G, the self-cleavage was 0.0751.

With A22U G54C, the self-cleavage came out at 0.333.

G1U A49C: the self-cleavage was determined as 0.202.

With G1U A49U, the self-cleavage was found to be 0.0947.

As to C4G A71C, the self-cleavage is 0.483.

As for U5A U63A, the self-cleavage worked out at 0.206.

As to U8G C12G, the self-cleavage turned out to be 0.146.

For A49G U58C, the self-cleavage was 0.532.

On to U14G G32U, for which the self-cleavage was 0.107.

A28C A41U: the self-cleavage stood at 1.12.

For C12G U70A, the self-cleavage was 0.728.

As for C16G C38U, the self-cleavage turned out to be 0.167.

Take G21U U63G: the self-cleavage was found to be 0.248.

Turning to U20G A59C, the self-cleavage is 0.313.

Regarding A36U C66G, the self-cleavage was found to be 0.338.

With A61U U67G, the self-cleavage stood at 0.129.

For G15U G40U, the self-cleavage stood at 0.206.

With A36G C37A, the self-cleavage turned out to be 0.297.

With C18G A22C, the self-cleavage came out at 0.79.

Regarding A23U A35C, the self-cleavage was determined as 0.848.

Turning to U33G U53G, the self-cleavage was found to be 0.211.

For the variant A44C A64C, the self-cleavage was 0.0397.

Take G1U A43C: the self-cleavage turned out to be 0.169.

Regarding A47G G69U, the self-cleavage amounted to 0.118.

As for U9A U60A, the self-cleavage was determined as 0.483.

Turning to C6U A30C, the self-cleavage is 0.205.

Turning to A28U G69A, the self-cleavage worked out at 0.137.

As to A24U C66A, the self-cleavage came out at 0.137.

Turning to C46A U58A, the self-cleavage amounted to 0.198.

Consider C50U U58A, for which the self-cleavage was 0.194.

Consider G15U A26U, for which the self-cleavage worked out at 0.831.

In the case of G19C A44U, the self-cleavage is 0.0473.

Turning to U20A G42C, the self-cleavage was 0.306.

In the case of A44C C50G, the self-cleavage was 0.

For G13U C38G, the self-cleavage turned out to be 0.136.

For U7C C38U, the self-cleavage came out at 0.211.

As to U14A G32U, the self-cleavage was determined as 0.108.

Turning to G1A U63G, the self-cleavage turned out to be 0.284.

In the case of G51A U60G, the self-cleavage stood at 0.672.

Take G19C U58A: the self-cleavage was found to be 0.569.

A24U U33G: the self-cleavage is 0.135.

Take G1C A47C: the self-cleavage is 0.0859.

In the case of G17A G51C, the self-cleavage turned out to be 0.656.

C16A C18U: the self-cleavage was found to be 0.98.

A30G C50U: the self-cleavage was 0.0809.

For A43G G68A, the self-cleavage came to 0.172.

U2A C50G: the self-cleavage was determined as 0.189.

G29C G68U: the self-cleavage worked out at 0.125.

For A26G G42U, the self-cleavage came to 0.371.

Regarding A26G G42A, the self-cleavage was determined as 0.245.

For G1A A28G, the self-cleavage stood at 0.196.

Take G17U G19C: the self-cleavage is 0.846.

U2A C46G: the self-cleavage stood at 0.0818.

For the variant U8C A35U, the self-cleavage is 0.679.

Regarding U5C U63G, the self-cleavage was found to be 0.0578.

Regarding A31G U53G, the self-cleavage is 0.495.

As to A22U A28U, the self-cleavage was found to be 0.67.

In the case of U9G A43G, the self-cleavage came to 0.116.

With G19C G27A, the self-cleavage worked out at 0.361.

Turning to U33C A44G, the self-cleavage came to 0.0547.

As for U33A C50U, the self-cleavage turned out to be 0.105.

For G17A A28G, the self-cleavage amounted to 1.14.

C16A C48G: the self-cleavage is 0.155.

As for A61G C66G, the self-cleavage turned out to be 0.329.

Regarding U8A A22U, the self-cleavage was determined as 0.891.

Regarding A44C G69U, the self-cleavage was found to be 0.167.

For A30C A45G, the self-cleavage was found to be 0.194.

In the case of A39U A44U, the self-cleavage worked out at 0.102.

A36U A61G: the self-cleavage worked out at 0.156.

Consider U55C G69A, for which the self-cleavage stood at 0.166.

Consider G1U A47C, for which the self-cleavage worked out at 0.107.

For A23G A26U, the self-cleavage stood at 0.842.

Turning to C16A U55G, the self-cleavage amounted to 0.232.

In the case of G21A C65A, the self-cleavage was 0.861.

For U7C C12A, the self-cleavage was 0.516.

As to A24G U58A, the self-cleavage turned out to be 0.628.

For the variant U20C A24U, the self-cleavage turned out to be 0.503.

As to U14C A24G, the self-cleavage was 0.81.

In the case of A35C G51C, the self-cleavage was found to be 0.725.

With A30C U60G, the self-cleavage stood at 0.181.

As to A36C G54A, the self-cleavage is 0.467.

Turning to C12G A24C, the self-cleavage turned out to be 0.613.

For the variant G29C U70A, the self-cleavage came out at 0.162.

As for C12G G17U, the self-cleavage came out at 0.627.

As for U7G A59C, the self-cleavage came to 0.0534.

Take A61C U70C: the self-cleavage turned out to be 0.169.

In the case of U55C A71G, the self-cleavage was 0.388.

For C6U U63A, the self-cleavage amounted to 0.207.

Turning to A28G A61U, the self-cleavage turned out to be 0.182.

Turning to G25U A64G, the self-cleavage was found to be 0.428.

On to C12G G34C, for which the self-cleavage amounted to 1.15.

For C37G U60A, the self-cleavage turned out to be 0.197.

With U9A A71C, the self-cleavage turned out to be 1.01.

Consider G29A U52A, for which the self-cleavage amounted to 0.115.

For the variant G29U C46A, the self-cleavage was determined as 0.089.

On to A24C U55G, for which the self-cleavage is 0.266.

With A47U A59G, the self-cleavage was 0.151.

Take G29A A35U: the self-cleavage came out at 0.0646.

With A26C G69U, the self-cleavage was 0.108.

A11U A41U: the self-cleavage was 1.

On to G51A A61U, for which the self-cleavage is 0.192.

With C50G U60G, the self-cleavage worked out at 0.158.

A11C C18G: the self-cleavage worked out at 0.775.

Consider G40C, for which the self-cleavage amounted to 0.128.

With A59U U67G, the self-cleavage was 0.143.

On to U53A U70A, for which the self-cleavage was 0.987.

With A28U U58A, the self-cleavage is 0.36.

Consider U9A G56A, for which the self-cleavage stood at 0.158.

G15A A28C: the self-cleavage was determined as 0.586.

Regarding C48A G69C, the self-cleavage turned out to be 0.135.

Consider U2G G34C, for which the self-cleavage was found to be 0.736.

Take G15C U20A: the self-cleavage amounted to 0.963.

On to G27U A49C, for which the self-cleavage is 0.225.

On to C4A C10A, for which the self-cleavage was 0.16.

For the variant C4U U8G, the self-cleavage amounted to 0.204.

As for A28G U70C, the self-cleavage was 0.859.

G25C U70C: the self-cleavage amounted to 0.401.

For G34C C66A, the self-cleavage stood at 0.693.

Turning to U8G G68C, the self-cleavage worked out at 0.183.

In the case of A28G A36G, the self-cleavage turned out to be 1.16.

With C10G U20C, the self-cleavage amounted to 0.647.

For G25C A43G, the self-cleavage turned out to be 0.116.

Consider G51C U55A, for which the self-cleavage was found to be 0.19.

A45G G68U: the self-cleavage came to 0.223.

As for U33C C38U, the self-cleavage is 0.0575.
